In publication PMC9319256, “Human Enzyme PADI4 Binds to the Nuclear Carrier Importin α3” (Cells, 2022):

Tests used:
[1] = target: ΔImpα3, truncated importin α3 lacking the importin β-binding (IBB) domain (human); assay: ITC; PADI4 or peptide (100 µM) in the syringe titrated into importin (10 µM) in the cell; 20 mM Tris pH 7.5, 5 mM TCEP, 150 mM NaCl, 5% glycerol; 25 °C; single-site model
[2] = target: human importin α3 (Impα3), intact (human); assay: as above
[3] = target: PADI4 (peptidyl-arginine deiminase 4), intact (human) (UniProt Q9UM07); assay: other fluorescence titration; importin species 0-25 µM added to 3 µM PADI4; 20 mM Tris pH 7.5, 5 mM TCEP, 150 mM NaCl, 5% glycerol; 25 °C; fluorescence at 330 nm
Sequence of PADI4 (peptidyl-arginine deiminase 4), intact (human) (Q9UM07 whole entry, the tested form may be a part): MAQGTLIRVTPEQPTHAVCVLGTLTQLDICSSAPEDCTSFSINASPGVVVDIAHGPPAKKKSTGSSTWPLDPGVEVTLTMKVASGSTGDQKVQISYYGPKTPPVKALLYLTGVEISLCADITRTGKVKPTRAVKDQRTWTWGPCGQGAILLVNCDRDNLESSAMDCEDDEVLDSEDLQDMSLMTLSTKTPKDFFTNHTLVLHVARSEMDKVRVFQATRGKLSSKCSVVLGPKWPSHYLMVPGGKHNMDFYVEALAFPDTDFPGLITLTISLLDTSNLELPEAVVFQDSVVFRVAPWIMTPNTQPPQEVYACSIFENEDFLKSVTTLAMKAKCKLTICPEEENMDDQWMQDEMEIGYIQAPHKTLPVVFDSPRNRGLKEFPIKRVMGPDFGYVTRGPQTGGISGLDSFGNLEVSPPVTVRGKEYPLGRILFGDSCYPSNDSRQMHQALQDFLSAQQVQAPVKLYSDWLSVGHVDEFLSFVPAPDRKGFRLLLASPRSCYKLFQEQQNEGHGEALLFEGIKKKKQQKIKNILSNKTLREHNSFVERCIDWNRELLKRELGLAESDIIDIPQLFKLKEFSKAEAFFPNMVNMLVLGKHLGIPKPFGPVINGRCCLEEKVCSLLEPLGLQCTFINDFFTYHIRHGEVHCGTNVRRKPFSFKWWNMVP

[4] = target: ΔImpα3, truncated importin α3 lacking the importin β-binding (IBB) domain (human); assay: BLI; BLItz; His-tagged Impα3 or ΔImpα3 immobilised on His-tag biosensors at 0.3 µM; peptides 1-7 µM; manufacturer's buffer; 25 °C; pseudo-first-order plots; apparent
[5] = target: human importin α3 (Impα3), intact (human); assay: as above
[6] = target: NLS1-PADI4 peptide (human); assay: translational diffusion NMR (DOSY); 100 µM peptide; 100 mM sodium phosphate, pH 7.0; 10 °C; dioxane as reference
[7] = target: human importin α3 (Impα3), intact (human); assay: ITC; PADI4 or peptide (100 µM) in the syringe titrated into importin (10 µM) in the cell; 20 mM Tris pH 7.5, 5 mM TCEP, 150 mM NaCl, 5% glycerol; 25 °C; single-site model; remark: listed apart in the source

Sequence of PADI4 (peptidyl-arginine deiminase 4), intact (Q9UM07 whole entry): as the sequence (Q9UM07 whole entry, the tested form may be a part) above

Ka [1] [M⁻¹]	Kd [1] [µM]	dH [1] [kcal/mol]	stoichiometry N [1]	Ka [2] [M⁻¹]	Kd [2] [µM]	dH [2] [kcal/mol]	stoichiometry N [2]	Kd [3] [µM]	Kd [4] [µM]	koff [4] [s⁻¹]	kon [4] [M⁻¹ s⁻¹]	Kd [5] [µM]	koff [5] [s⁻¹]	kon [5] [M⁻¹ s⁻¹]	stoichiometry N [6]	Kd [7] [µM]	Substance
780000	1.3	-38.4	0.84	210000	4.8	-65.5	0.97	–	–	–	–	–	–	–	–	–	PADI4 (peptidyl-arginine deiminase 4), intact (from UniProt Q9UM07 1-663) (enzyme)
–	–	–	–	–	–	–	–	6	–	–	–	–	–	–	–	–	ΔImpα3, truncated importin α3 lacking the importin β-binding (IBB) domain (domain or fragment)
650000	1.5	-8.7	1.22	230000	4.3	-21.3	1.24	–	4	0.046	11000	18	0.0685	3700	6	4.4	NLS1-PADI4 peptide
–	–	–	–	–	–	–	–	3.9	–	–	–	–	–	–	–	–	human importin α3 (Impα3), intact (natural protein)
